Tests used:
[1] = target: the molecule itself; assay: far-UV circular dichroism
[2] = target: the molecule itself; assay: scanning electron microscopy of in vitro assembled purified protein

Protein	binding result [1]	binding result [2]
Full length human lamin A W514R (natural protein, UniProt P02545 1-664, looked up) METPSQRRATRSGAQASSTPLSPTRITRLQEKEDLQELNDRLAVYIDRVRSLETENAGLRLRITESEEVVSREVSGIKAAYEAELGDARKTLDSVAKERARLQLELSKVREEFKELKARNTKKEGDLIAAQARLKDLEALLNSKEAALSTALSEKRTLEGELHDLRGQVAKLEAALGEAKKQLQDEMLRRVDAENRLQTMKEELDFQKNIYSEELRETKRRHETRLVEIDNGKQREFESRLADALQELRAQHEDQVEQYKKELEKTYSAKLDNARQSAERNSNLVGAAHEELQQSRIRIDSLSAQLSQLQKQLAAKEAKLRDLEDSLARERDTSRRLLAEKEREMAEMRARMQQQLDEYQELLDIKLALDMEIHAYRKLLEGEEERLRLSPSPTSQRSRGRASSHSSQTQGGGSVTKKRKLESTESRSSFSQHARTSGRVAVEEVDEEGKFVRLRNKSNEDQSMGNWQIKRQNGDDPLLTYRFPPKFTLKAGQVVTIWAAGAGATHSPPTDLVRKAQNTWGCGNSLRTALINSTGEEVAMRKLVRSVTVVEDDEDEDGDDLLHHHHGSHCSSSGDPAEYNLRSRTVLCGTCGQPADKASASGSGAQVGGPISSGSSASSVTVTRSYRSVGGSGGGSFGDNLVTRSYLLGNSSPRTQSPQNCSIM	binds	–
Full length human lamin A protein/pre-lamin A (664 amino acids), wild type (natural protein, UniProt P02545 1-664, looked up) METPSQRRATRSGAQASSTPLSPTRITRLQEKEDLQELNDRLAVYIDRVRSLETENAGLRLRITESEEVVSREVSGIKAAYEAELGDARKTLDSVAKERARLQLELSKVREEFKELKARNTKKEGDLIAAQARLKDLEALLNSKEAALSTALSEKRTLEGELHDLRGQVAKLEAALGEAKKQLQDEMLRRVDAENRLQTMKEELDFQKNIYSEELRETKRRHETRLVEIDNGKQREFESRLADALQELRAQHEDQVEQYKKELEKTYSAKLDNARQSAERNSNLVGAAHEELQQSRIRIDSLSAQLSQLQKQLAAKEAKLRDLEDSLARERDTSRRLLAEKEREMAEMRARMQQQLDEYQELLDIKLALDMEIHAYRKLLEGEEERLRLSPSPTSQRSRGRASSHSSQTQGGGSVTKKRKLESTESRSSFSQHARTSGRVAVEEVDEEGKFVRLRNKSNEDQSMGNWQIKRQNGDDPLLTYRFPPKFTLKAGQVVTIWAAGAGATHSPPTDLVWKAQNTWGCGNSLRTALINSTGEEVAMRKLVRSVTVVEDDEDEDGDDLLHHHHGSHCSSSGDPAEYNLRSRTVLCGTCGQPADKASASGSGAQVGGPISSGSSASSVTVTRSYRSVGGSGGGSFGDNLVTRSYLLGNSSPRTQSPQNCSIM	–	binds

From article doi:10.1101/2022.05.30.493956 (bioRxiv, 2022)
